Assay results as given in the supplement of paper PMC9876800.

Test system: peptide library, one residue held at a place counted from the S/T acceptor
Assay: relative phosphorylation of the sub-library (ratio to the mean residue at this position); human; higher = residue favoured
How it was run: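 Relative sub-library phosphorylation is a ratio to the mean residue at the same position. Purified recombinant kinases were incubated under kinase-specific conditions with biotinylated degenerate peptide sub-libraries, each fixing one residue at one position around a central Ser/Thr, using 50 μM peptide and 50 μM ATP spiked with γ-32P-ATP for 90 min. Spots captured on streptavidin membranes were phosphorimaged and quantified by densitometry.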

CSNK1G3, construct: Full length, sequence (Q9Y6M4 whole entry, looked up): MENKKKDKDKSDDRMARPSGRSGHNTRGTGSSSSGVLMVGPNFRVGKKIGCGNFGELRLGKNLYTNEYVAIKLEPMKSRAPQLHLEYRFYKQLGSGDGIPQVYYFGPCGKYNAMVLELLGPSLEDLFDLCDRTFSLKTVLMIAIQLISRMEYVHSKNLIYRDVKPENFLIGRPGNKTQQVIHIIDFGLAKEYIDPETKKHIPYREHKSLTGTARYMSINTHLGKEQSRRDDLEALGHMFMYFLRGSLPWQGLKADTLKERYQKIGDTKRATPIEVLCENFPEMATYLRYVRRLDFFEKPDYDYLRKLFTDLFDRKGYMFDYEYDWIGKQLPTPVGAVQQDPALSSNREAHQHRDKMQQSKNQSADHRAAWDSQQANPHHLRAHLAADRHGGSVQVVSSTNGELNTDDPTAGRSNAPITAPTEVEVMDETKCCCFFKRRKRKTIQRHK
CSNK2A1, construct: Full length, sequence (P68400 whole entry, looked up): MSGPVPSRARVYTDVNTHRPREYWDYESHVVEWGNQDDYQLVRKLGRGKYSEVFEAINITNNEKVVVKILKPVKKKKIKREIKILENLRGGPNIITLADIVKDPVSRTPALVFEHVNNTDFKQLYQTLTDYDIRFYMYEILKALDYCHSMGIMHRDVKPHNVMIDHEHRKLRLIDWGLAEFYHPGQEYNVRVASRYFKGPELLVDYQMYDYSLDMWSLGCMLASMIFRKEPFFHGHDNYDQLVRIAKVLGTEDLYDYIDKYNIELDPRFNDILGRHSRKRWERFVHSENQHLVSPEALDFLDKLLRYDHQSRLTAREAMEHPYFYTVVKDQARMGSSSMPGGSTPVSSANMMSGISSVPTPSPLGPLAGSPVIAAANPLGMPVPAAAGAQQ

CSNK1G3, construct: Full length (from UniProt Q9Y6M4)
relative phosphorylation
Conditions	at +1	at +2	at +3	at +4	at -1	at -2	at -3	at -4	at -5
A fixed	0.678	0.743	0.752	0.708	0.916	1.39	0.508	0.923	1.01
D fixed	0.543	0.941	2.63	1.12	0.701	1.08	5.05	1.58	1.8
E fixed	0.611	0.607	1.46	0.928	0.788	1.27	3.58	1.78	1.62
F fixed	1.07	1.17	1.22	1.43	0.905	0.576	0.522	1.07	0.859
G fixed	0.459	0.67	0.931	1.07	0.635	0.903	0.475	0.818	0.86
H fixed	0.841	1.44	0.901	0.991	0.949	0.716	0.548	0.898	0.988
I fixed	1.81	1.02	0.58	0.696	1.39	0.963	0.467	0.714	0.82
K fixed	0.778	0.952	0.672	0.822	1	0.832	0.652	0.763	0.896
L fixed	2.24	1.1	0.772	0.808	1.23	1.05	0.484	0.796	0.91
M fixed	1.58	0.945	0.748	0.989	1.32	0.882	0.504	0.872	0.96
N fixed	0.721	1.06	1.05	0.947	0.781	1.57	0.645	0.801	1.04
P fixed	0.443	0.482	0.683	0.97	0.579	0.471	0.418	0.897	0.658
Q fixed	0.843	0.864	0.869	0.879	1.1	1.26	0.528	0.788	0.79
R fixed	1.03	1.25	0.877	1.02	1.28	1.54	1.02	0.845	0.992
V fixed	1.5	0.936	0.794	0.814	1.23	1.17	0.458	0.669	0.876
W fixed	1.01	1.23	1.11	1.48	1.22	0.715	0.581	1.69	1.05
Y fixed	0.855	1.59	0.941	1.33	0.974	0.613	0.56	1.1	0.877
pThr fixed	0.618	0.558	1.52	2.55	0.636	4.34	144	10.2	4.37
pTyr fixed	1.13	5.14	9.54	2.97	0.797	1.85	12.1	5.93	2.97

CSNK2A1, construct: Full length (from UniProt P68400)
relative phosphorylation
Conditions	at +1	at +2	at +3	at +4	at -1	at -2	at -3	at -4	at -5
A fixed	0.479	1.2	0.406	0.847	0.867	1.02	0.979	1.01	1.09
D fixed	9.09	3.13	2.81	2.06	3.14	1.45	1.78	1.79	1.46
E fixed	3.33	2.03	9.11	2.6	2.33	1.37	1.53	1.56	1.2
F fixed	0.24	0.739	0.307	0.878	0.886	1.04	0.97	0.88	0.976
G fixed	0.561	0.782	0.533	1.06	0.687	0.891	1.65	1.03	0.98
H fixed	0.333	0.993	0.347	0.75	0.829	0.968	0.907	0.895	1.08
I fixed	0.208	0.654	0.249	0.811	0.61	0.94	0.759	0.839	0.883
K fixed	0.23	0.374	0.236	0.53	0.48	0.458	0.566	0.76	0.963
L fixed	0.237	0.499	0.246	0.64	0.926	0.693	0.702	0.892	0.726
M fixed	0.259	0.524	0.257	0.916	0.934	0.705	0.823	0.941	0.911
N fixed	0.5	1.42	0.455	0.904	0.796	0.813	1.05	1.04	1.05
P fixed	0.232	0.543	0.412	0.597	0.541	0.778	0.853	0.807	0.751
Q fixed	0.352	0.68	0.4	0.832	0.922	0.678	0.869	0.867	0.808
R fixed	0.221	0.426	0.258	0.553	0.435	0.589	0.657	0.87	0.943
V fixed	0.249	0.923	0.263	0.76	0.751	0.859	0.801	0.826	0.969
W fixed	0.236	1.16	0.328	1.32	0.914	1.12	0.897	0.927	1.15
Y fixed	0.238	0.923	0.385	0.933	0.954	2.62	1.21	1.08	1.06
pThr fixed	5.46	1.84	1.96	6.46	1.96	1.59	2.22	1.83	1.39
pTyr fixed	0.808	2.14	4.29	3.87	3.49	2.41	2.37	1.4	1.47
